{"source": "paper PMC2811012", "about": "(Nucleic Acids Research, 2009)", "key": {"[1]": {"target": "Human M-phase phosphoprotein chromodomain-containing region (amino acids 50–120) with N-terminal GST tag (human) (UniProt Q99549)", "experiment": "AlphaScreen or HTRF"}, "[2]": {"target": "Mouse heterochromatin protein 1-beta chromodomain-containing region (amino acids 1–185) with N-terminal GST tag (mouse) (UniProt P83917)", "sequence (P83917 whole entry, the tested form may be a part)": "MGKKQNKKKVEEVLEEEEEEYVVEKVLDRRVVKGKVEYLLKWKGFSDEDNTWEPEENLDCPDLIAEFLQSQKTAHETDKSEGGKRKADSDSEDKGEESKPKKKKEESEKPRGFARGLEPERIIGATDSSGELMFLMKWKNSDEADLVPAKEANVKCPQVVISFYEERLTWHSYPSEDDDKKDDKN", "experiment": "AlphaScreen or HTRF"}, "[3]": {"target": "T1, GST-MPP8 (MPP8 chromodomain) (Homo sapiens, UniProt Q99549)", "T1 sequence (Q99549 50-120)": "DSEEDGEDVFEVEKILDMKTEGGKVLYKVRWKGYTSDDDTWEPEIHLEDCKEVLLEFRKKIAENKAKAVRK", "experiment": "AlphaScreen competitive binding, GST-MPP8/b-H3K9me3"}}}
{"compound": "biotinylated histone H3 peptide trimethylated at Lys4", "values": [{"measurement": "AlphaScreen signal", "setting": "[1]", "result": 26000, "unit": "c.p.s."}, {"measurement": "AlphaScreen signal", "setting": "[2]", "result": 7800, "unit": "c.p.s."}]}
{"compound": "C[C@H](N)C(=O)N[C@@H](CCCNC(=N)N)C(=O)N[C@H](C(=O)N[C@@H](CCCCN)C(=O)N[C@@H](CCC(N)=O)C(=O)N[C@H](C(=O)N[C@@H](C)C(=O)N[C@@H](CCCNC(=N)N)C(=O)N[C@@H](CCCCN)C(=O)N[C@@H](CO)C(=O)N[C@H](C(=O)NCC(=O)NCC(=O)N[C@@H](CCCCN)C(=O)N[C@@H](C)C(=O)N1CCC[C@H]1C(=O)N[C@@H](CCCNC(=N)N)C(=O)N[C@@H](CCCCN)C(=O)O)[C@@H](C)O)[C@@H](C)O)[C@@H](C)O", "note": "[Peptide H3]", "values": [{"measurement": "EC50", "setting": "[3]", "result": 160, "unit": "µM"}]}
{"compound": "biotinylated histone H3 peptide trimethylated at Lys9", "values": [{"measurement": "fold AlphaScreen signal over b-H3K4me3", "setting": "[1]", "result": 1.7, "unit": "fold"}, {"measurement": "fold AlphaScreen signal over b-H3K4me3", "setting": "[2]", "result": 3.3, "unit": "fold"}]}
